Measurements taken from the supplement of paper PMC5998384.

Legend:
[1] = test system: HeLa Kyoto; assay: solubility in G1/S (NP-40 vs SDS abundance) (log2 ratio); higher = more soluble; conditions: cell cycle stage: G1/S
[2] = test system: HeLa Kyoto; assay: solubility change mitosis vs G1/S (difference of NP-40 vs SDS log2 ratios) (log2 ratio difference); higher = more soluble in mitosis
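For solubility change mitosis vs G1/S (difference of NP-40 vs SDS log2 ratios) in this document: synchronized HeLa Kyoto cells (double thymidine block for G1/S, nocodazole release for mitosis), protein amounts in NP-40 versus SDS lysates quantified by mass spectrometry, three biological replicates.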
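For solubility in G1/S (NP-40 vs SDS abundance) in this document: HeLa Kyoto cells arrested at G1/S by double thymidine block, proteins quantified by TMT10plex mass spectrometry in mild NP-40 versus SDS extracts, three biological replicates.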

Row | Sequence | solubility in G1/S (log2) [1] | solubility change mitosis (log2) [2]
1 | MPLPGGLWWLLCCRRGFTLLHRDYGDGELSGDGDEDEDEETFELRTPSPAGGGRGPLEVTLTQPVRSGPVSNRLQSWEETWSLIPEKGLPEDDPDIVVKGWLYREPRGGGARPWLPPRRAWFVLTRDSLDQFSSSGKGARRLGSLVLTSLCSVTGPERRRKETGLWSVTVSGRKHSVRLCSPRQAEAERWGVALREVIASKAPLETPTQLLLRDIQESCGDPEAVALIYLRNPILRHTSGALYAPLLPLPYGVSAPGPGYAPLREEAVRLFLALQALEGARRPGPLMQGVLQTCRDLPALRDELFLQLAKQTSGPAGPPGLPATQDPAALRYWQLLTCMSCTFRPGGAVRGHLLGHLERTEQALPDSELAEYARFIRKALGRTRGRELVPSLAEISALSQRQELLCTVHCPGAGACAVAIDSHTTAGEVARELVGRLGLARSRNAFALYEQRGAQERALAGGTLVADVLTRFENLAAEEAGLEDSPDSGWRLCLRLHGPLHPEGLSPDGHELPFLFEQAHALLLRGRPPPPDDTLRALAALRLQSLQRDFSPRVPLPRLDRLLPPPAPPREDPPRPTPRPPPSAALLAGALWSPGLAKRRAERARRGGAGRTAGSIAREGGGGAGTAAAVLGGWKRLRGMGRAEAMAAYLALAAQCPGFGAARYDVLELSTEPGRGAPQKLCLGLGAKAMSLSRPGETEPIHSVSYGHVAACQLMGPHTLALRVGESQLLLQSPQVEEIMQLVNAYLANPSPERPCSSSSPPCQDLPDTSPPSQRPGLDEPQGQSGCLGQLQD [PLEKHH3] | 0.00769 | -0.16
2 | MEFSIKQSPLSVQSVVKCIKMKQAPEILGSANGKTPSCEVNRECSVFLSKAQLSSSLQEGVMQKFNGHDALPFIPADKLKDLTSRVFNGEPGAHDAKLRFESQEMKGIGTPPNTTPIKNGSPEIKLKITKTYMNGKPLFESSICGDSAADVSQSEENGQKPENKARRNRKRSIKYDSLLEQGLVEAALVSKISSPSDKKIPAKKESCPNTGRDKDHLLKYNVGDLVWSKVSGYPWWPCMVSADPLLHSYTKLKGQKKSARQYHVQFFGDAPERAWIFEKSLVAFEGEGQFEKLCQESAKQAPTKAEKIKLLKPISGKLRAQWEMGIVQAEEAASMSVEERKAKFTFLYVGDQLHLNPQVAKEAGIAAESLGEMAESSGVSEEAAENPKSVREECIPMKRRRRAKLCSSAETLESHPDIGKSTPQKTAEADPRRGVGSPPGRKKTTVSMPRSRKGDAASQFLVFCQKHRDEVVAEHPDASGEEIEELLRSQWSLLSEKQRARYNTKFALVAPVQAEEDSGNVNGKKRNHTKRIQDPTEDAEAEDTPRKRLRTDKHSLRKRDTITDKTARTSSYKAMEAASSLKSQAATKNLSDACKPLKKRNRASTAASSALGFSKSSSPSASLTENEVSDSPGDEPSESPYESADETQTEVSVSSKKSERGVTAKKEYVCQLCEKPGSLLLCEGPCCGAFHLACLGLSRRPEGRFTCSECASGIHSCFVCKESKTDVKRCVVTQCGKFYHEACVKKYPLTVFESRGFRCPLHSCVSCHASNPSNPRPSKGKMMRCVRCPVAYHSGDACLAAGCSVIASNSIICTAHFTARKGKRHHAHVNVSWCFVCSKGGSLLCCESCPAAFHPDCLNIEMPDGSWFCNDCRAGKKLHFQDIIWVKLGNYRWWPAEVCHPKNVPPNIQKMKHEIGEFPVFFFGSKDYYWTHQARVFPYMEGDRGSRYQGVRGIGRVFKNALQEAEARFREIKLQREARETQESERKPPPYKHIKVNKPYGKVQIYTADISEIPKCNCKPTDENPCGFDSECLNRMLMFECHPQVCPAGEFCQNQCFTKRQYPETKIIKTDGKGWGLVAKRDIRKGEFVNEYVGELIDEEECMARIKHAHENDITHFYMLTIDKDRIIDAGPKGNYSRFMNHSCQPNCETLKWTVNGDTRVGLFAVCDIPAGTELTFNYNLDCLGNEKTVCRCGASNCSGFLGDRPKTSTTLSSEEKGKKTKKKTRRRRAKGEGKRQSEDECFRCGDGGQLVLCDRKFCTKAYHLSCLGLGKRPFGKWECPWHHCDVCGKPSTSFCHLCPNSFCKEHQDGTAFSCTPDGRSYCCEHDLGAASVRSTKTEKPPPEPGKPKGKRRRRRGWRRVTEGK [WHSC1] | -1.29 | 0.535
3 | MAHEAMEYDVQVQLNHAEQQPAPAGMASSQGGPALLQPVPADVVSSQGVPSILQPAPAEVISSQATPPLLQPAPQLSVDLTEVEVLGEDTVENINPRTSEQHRQGSDGNHTIPASSLHSMTNFISGLQRLHGMLEFLRPSSSNHSVGPMRTRRRVSASRRARAGGSQRTDSARLRAPLDAYFQVSRTQPDLPATTYDSETRNPVSEELQVSSSSDSDSDSSAEYGGVVDQAEESGAVILEEQLAGVSAEQEVTCIDGGKTLPKQPSPQKSEPLLPSASMDEEEGDTCTICLEQWTNAGDHRLSALRCGHLFGYRCISTWLKGQVRKCPQCNKKARHSDIVVLYARTLRALDTSEQERMKSSLLKEQMLRKQAELESAQCRLQLQVLTDKCTRLQRRVQDLQKLTSHQSQNLQQPRGSQAWVLSCSPSSQGQHKHKYHFQKTFTVSQAGNCRIMAYCDALSCLVISQPSPQASFLPGFGVKMLSTANMKSSQYIPMHGKQIRGLAFSSYLRGLLLSASLDNTIKLTSLETNTVVQTYNAGRPVWSCCWCLDEANYIYAGLANGSILVYDVRNTSSHVQELVAQKARCPLVSLSYMPRAASAAFPYGGVLAGTLEDASFWEQKMDFSHWPHVLPLEPGGCIDFQTENSSRHCLVTYRPDKNHTTIRSVLMEMSYRLDDTGNPICSCQPVHTFFGGPTCKLLTKNAIFQSPENDGNILVCTGDEAANSALLWDAASGSLLQDLQTDQPVLDICPFEVNRNSYLATLTEKMVHIYKWE [RFWD3] | -0.0967 | -0.0684
4 | MNRVLCAPAAGAVRALRLIGWASRSLHPLPGSRDRAHPAAEEEDDPDRPIEFSSSKANPHRWSVGHTMGKGHQRPWWKVLPLSCFLVALIIWCYLREESEADQWLRQVWGEVPEPSDRSEEPETPAAYRART [CCSMST1] | -0.299 | 0.566
5 | MGSQHSAAARPSSCRRKQEDDRDGLLAEREQEEAIAQFPYVEFTGRDSITCLTCQGTGYIPTEQVNELVALIPHSDQRLRPQRTKQYVLLSILLCLLASGLVVFFLFPHSVLVDDDGIKVVKVTFNKQDSLVILTIMATLKIRNSNFYTVAVTSLSSQIQYMNTVVSTYVTTNVSLIPPRSEQLVNFTGKAEMGGPFSYVYFFCTVPEILVHNIVIFMRTSVKISYIGLMTQSSLETHHYVDCGGNSTAI [TMEM106C] | 0.121 | -0.29
6 | MAELNTHVNVKEKIYAVRSVVPNKSNNEIVLVLQQFDFNVDKAVQAFVDGSAIQVLKEWNMTGKKKNNKRKRSKSKQHQGNKDAKDKVERPEAGPLQPQPPQIQNGPMNGCEKDSSSTDSANEKPALIPREKKISILEEPSKALRGVTEGNRLLQQKLSLDGNPKPIHGTTERSDGLQWSAEQPCNPSKPKAKTSPVKSNTPAAHLEIKPDELAKKRGPNIEKSVKDLQRCTVSLTRYRVMIKEEVDSSVKKIKAAFAELHNCIIDKEVSLMAEMDKVKEEAMEILTARQKKAEELKRLTDLASQMAEMQLAELRAEIKHFVSERKYDEELGKAARFSCDIEQLKAQIMLCGEITHPKNNYSSRTPCSSLLPLLNAHAATSGKQSNFSRKSSTHNKPSEGKAANPKMVSSLPSTADPSHQTMPANKQNGSSNQRRRFNPQYHNNRLNGPAKSQGSGNEAEPLGKGNSRHEHRRQPHNGFRPKNKGGAKNQEASLGMKTPEAPAHSEKPRRRQHAADTSEARPFRGSVGRVSQCNLCPTRIEVSTDAAVLSVPAVTLVA [SPATS2L] | -1.29 | 1.14
7 | MEKLSALQEQKGELRKRLSYTTHKLEKLETEFDSTRHYLEIELRRAQEELEKVTEKLRRIQSNYMALQRINQELEDKLYRMGQHYEEEKRALSHEIVALNSHLLEAKVTIDKLSEDNELYRKDCNLAAQLLQCSQTYGRVHKVSELPSDFQERVSLHMEKHGCSLPSPLCHPAYADSVPTCVIAKVLEKPDPASLSSRLSDASARDLAFCDGVEKPGPRPPYKGDIYCSDTALYCPEERRRDRRPSVDAPVTDVGFLRAQNSTDSAAEEEEEAEAAAFPAGFQHEAFPSYAGSLPTSSSYSSFSATSEEKEHAQASTLTASQQAIYLNSRDELFDRKPPATTYEGSPRFAKATAAVAAPLEAEVAPGFGRTMSPYPAETFRFPASPGPQQALMPPNLWSLRAKPGTARLPGEDMRGQWRPLSVEDIGAYSYPVSAAGRASPCSFSERYYGGAGGSPGKKADGRASPLYASYKADSFSEGDDLSQGHLAEPCFLRAGGDLSLSPGRSADPLPGYAPSEGGDGDRLGVQLCGTASSPEPEQGSRDSLEPSSMEASPEMHPAARLSPQQAFPRTGGSGLSRKDSLTKAQLYGTLLN [BEGAIN] | 0.208 | 0.103
8 | MSEARGEPGSGPEAGARFFCTAGRGLEPFVMREVRARLAATQVEYISGKVFFTTCSDLNMLKKLKSAERLFLLIKKQFPLIISSVSKGKIFNEMQRLINEDPGSWLNAISIWKNLLELDAKKEKLSQRDDNQLKRKVGENEIIAKKLKIEQMQKIEENRDCQLEKQIKEETLEQRDFTTKSEKFQEEEFQNDIEKAIDTHNQNDLTFRVSCRCSGTIGKAFTAQEVGKVIGIAIMKHFGWKADLRNPQLEIFIHLNDIYSVVGIPVFRVSLASRAYIKTAGLRSTIAWAMASLADIKAGAFVLDPMCGLGTILLEAAKEWPDVYYVGADVSDSQLLGTWDNLKAAGLEDKIELLKISVIELPLPSESVDIIISDIPFGKKFKLGKDIKSILQEMERVLHVGGTIVLLLSEDHHRRLTDCKESNIPFNSKDSHTDEPGIKKCLNPEEKTGAFKTASTSFEASNHKFLDRMSPFGSLVPVECYKVSLGKTDAFICKYKKSHSSGL [THUMPD2] | 0.0337 | -0.134
9 | MDRFLVKGAQGGLLRKQEEQEPTGEEPAVLGGDKESTRKRPRREAPGNGGHSAGPSWRHIRAEGLDCSYTVLFGKAEADEIFQELEKEVEYFTGALARVQVFGKWHSVPRKQATYGDAGLTYTFSGLTLSPKPWIPVLERIRDHVSGVTGQTFNFVLINRYKDGCDHIGEHRDDERELAPGSPIASVSFGACRDFVFRHKDSRGKSPSRRVAVVRLPLAHGSLLMMNHPTNTHWYHSLPVRKKVLAPRVNLTFRKILLTKK [ALKBH2] | 0.0785 | 0.0123
10 | MARGGDTGCTGPSETSASGAAAIALPGLEGPATDAQCQTLPLTVLKSRSPSPRSLPPALSCPPPQPAMLEHLSSLPTQMDYKGQKLAEQMFQGIILFSAIVGFIYGYVAEQFGWTVYIVMAGFAFSCLLTLPPWPIYRRHPLKWLPVQESSTDDKKPGERKIKRHAKNN [SPCS1] | -0.248 | -0.00723
11 | MLRLQMTDGHISCTAVEFSYMSKISLNTPPGTKVKLSGIVDIKNGFLLLNDSNTTVLGGEVEHLIEKWELQRSLSKHNRSNIGTEGGPPPFVPFGQKCVSHVQVDSRELDRRKTLQVTMPVKPTNDNDEFEKQRTAAIAEVAKSKETKTFGGGGGGARSNLNMNAAGNRNREVLQKEKSTKSEGKHEGVYRELVDEKALKHITEMGFSKEASRQALMDNGNNLEAALNVLLTSNKQKPVMGPPLRGRGKGRGRIRSEDEEDLGNARPSAPSTLFDFLESKMGTLNVEEPKSQPQQLHQGQYRSSNTEQNGVKDNNHLRHPPRNDTRQPRNEKPPRFQRDSQNSKSVLEGSGLPRNRGSERPSTSSVSEVWAEDRIKCDRPYSRYDRTKDTSYPLGSQHSDGAFKKRDNSMQSRSGKGPSFAEAKENPLPQGSVDYNNQKRGKRESQTSIPDYFYDRKSQTINNEAFSGIKIEKHFNVNTDYQNPVRSNSFIGVPNGEVEMPLKGRRIGPIKPAGPVTAVPCDDKIFYNSGPKRRSGPIKPEKILESSIPMEYAKMWKPGDECFALYWEDNKFYRAEVEALHSSGMTAVVKFIDYGNYEEVLLSNIKPIQTEAWEEEGTYDQTLEFRRGGDGQPRRSTRPTQQFYQPPRARN [TDRD3] | -0.658 | 0.149
